Test results reported in patent US4285932A, “Enzyme derivatives for use in the treatment of venous thrombosis” (Beecham Group Limited, priority 1978, dated 1981).

B1: p-Anisoyl: porcine plasmin, active site serine blocked by p-anisoyl; porcine column of Table 1 (protein, UniProt P06867 20-579; P06867 580-809, looked up)
Plasmin heavy chain A: DSLDDYVNTQGAFLFSLSRKQVAARSVEECAAKCEAETNFICRAFQYHSKDQQCVVMAENSKTSPIARMRDVVLFEKRIYLSECKTGNGKNYRGTTSKTKSGVICQKWSVSSPHIPKYSPEKFPLAGLEENYCRNPDNDEKGPWCYTTDPETRFDYCDIPECEDECMHCSGEHYEGKISKTMSGIECQSWGSQSPHAHGYLPSKFPNKNLKMNYCRNPDGEPRPWCFTTDPNKRWEFCDIPRCTTPPPTSGPTYQCLKGRGENYRGTVSVTASGHTCQRWSAQSPHKHNRTPENFPCKNLEENYCRNPDGETAPWCYTTDSEVRWDYCKIPSCGSSTTSTEYLDAPVPPEQTPVAQDCYRGNGESYRGTSSTTITGRKCQSWVSMTPHRHEKTPGNFPNAGLTMNYCRNPDADKSPWCYTTDPRVRWEYCNLKKCSETEQQVTNFPAIAQVPSVEDLSEDCMFGNGKRYRGKRATTVAGVPCQEWAAQEPHRHSIFTPETNPRAGLEKNYCRNPDGDDNGPWCYTTNPQKLFDYCDVPQCVTSSFDCGKPKVEPKKCPAR
Plasmin light chain B: VVGGCVSIPHSWPWQISLRHRYGGHFCGGTLISPEWVLTAKHCLEKSSSPSSYKVILGAHEEYHLGEGVQEIDVSKLFKEPSEADIALLKLSSPAIITDKVIPACLPTPNYVVADRTACYITGWGETKGTYGAGLLKEARLPVIENKVCNRYEYLGGKVSPNELCAGHLAGGIDSCQGDSGGPLVCFEKDKYILQGVTSWGLGCALPNKPGVYVRVSRFVTWIEEIMRRN
modifications: plasmin p-anisoyl acylated active site
B2: 2,4 Dimethoxybenzoyl: human plasmin, active site serine blocked by 2,4-dimethoxybenzoyl (acylating agent of Example 6) (protein, UniProt P00747 20-580; P00747 581-810, looked up)
Plasmin heavy chain A: EPLDDYVNTQGASLFSVTKKQLGAGSIEECAAKCEEDEEFTCRAFQYHSKEQQCVIMAENRKSSIIIRMRDVVLFEKKVYLSECKTGNGKNYRGTMSKTKNGITCQKWSSTSPHRPRFSPATHPSEGLEENYCRNPDNDPQGPWCYTTDPEKRYDYCDILECEEECMHCSGENYDGKISKTMSGLECQAWDSQSPHAHGYIPSKFPNKNLKKNYCRNPDRELRPWCFTTDPNKRWELCDIPRCTTPPPSSGPTYQCLKGTGENYRGNVAVTVSGHTCQHWSAQTPHTHNRTPENFPCKNLDENYCRNPDGKRAPWCHTTNSQVRWEYCKIPSCDSSPVSTEQLAPTAPPELTPVVQDCYHGDGQSYRGTSSTTTTGKKCQSWSSMTPHRHQKTPENYPNAGLTMNYCRNPDADKGPWCFTTDPSVRWEYCNLKKCSGTEASVVAPPPVVLLPDVETPSEEDCMFGNGKGYRGKRATTVTGTPCQDWAAQEPHRHSIFTPETNPRAGLEKNYCRNPDGDVGGPWCYTTNPRKLYDYCDVPQCAAPSFDCGKPQVEPKKCPGR
Plasmin light chain B: VVGGCVAHPHSWPWQVSLRTRFGMHFCGGTLISPEWVLTAAHCLEKSPRPSSYKVILGAHQEVNLEPHVQEIEVSRLFLEPTRKDIALLKLSSPAVITDKVIPACLPSPNYVVADRTECFITGWGETQGTFGAGLLKEAQLPVIENKVCNRYEFLNGRVQSTELCAGHLAGGTDSCQGDSGGPLVCFEKDKYILQGVTSWGLGCARPNKPGVYVRVSRFVTWIEGVMRNN
modifications: plasmin 2,4-dimethoxybenzoyl acylated active site
B3: 3 Methyl 4-methoxybenzoyl: human plasmin, active site serine blocked by 3-methyl-4-methoxybenzoyl (acylating agent of Example 17) (protein, UniProt P00747 20-580; P00747 581-810, looked up)
Plasmin heavy chain A: B2 Plasmin heavy chain A
Plasmin light chain B: B2 Plasmin light chain B
modifications: plasmin 3-methyl-4-methoxybenzoyl acylated active site
B4: p-Ethoxybenzoyl: human plasmin, active site serine blocked by p-ethoxybenzoyl (acylating agent of Example 8) (protein, UniProt P00747 20-580; P00747 581-810, looked up)
Plasmin heavy chain A: B2 Plasmin heavy chain A
Plasmin light chain B: B2 Plasmin light chain B
modifications: plasmin p-ethoxybenzoyl acylated active site
B5: O-Anisoyl: human plasmin, active site serine blocked by o-anisoyl (acylating agent of Example 15) (protein, UniProt P00747 20-580; P00747 581-810, looked up)
Plasmin heavy chain A: B2 Plasmin heavy chain A
Plasmin light chain B: B2 Plasmin light chain B
modifications: plasmin o-anisoyl acylated active site
B6: O-Toloyl: human plasmin, active site serine blocked by o-toluoyl (acylating agent of Example 9) (protein, UniProt P00747 20-580; P00747 581-810, looked up)
Plasmin heavy chain A: B2 Plasmin heavy chain A
Plasmin light chain B: B2 Plasmin light chain B
modifications: plasmin o-toluoyl acylated active site
B7: Acetylsalicycloyl: human plasmin, active site serine blocked by acetylsalicyloyl (acylating agent of Example 7) (protein, UniProt P00747 20-580; P00747 581-810, looked up)
Plasmin heavy chain A: B2 Plasmin heavy chain A
Plasmin light chain B: B2 Plasmin light chain B
modifications: plasmin acetylsalicyloyl acylated active site
B8: p-Acetamidobenzoyl: human plasmin, active site serine blocked by p-acetamidobenzoyl (acylating agent of Example 18) (protein, UniProt P00747 20-580; P00747 581-810, looked up)
Plasmin heavy chain A: B2 Plasmin heavy chain A
Plasmin light chain B: B2 Plasmin light chain B
modifications: plasmin p-acetamidobenzoyl acylated active site
B9: 3,3 Dimethylacryloyl: human plasmin, active site serine blocked by 3,3-dimethylacryloyl (acylating agent of Example 4) (protein, UniProt P00747 20-580; P00747 581-810, looked up)
Plasmin heavy chain A: B2 Plasmin heavy chain A
Plasmin light chain B: B2 Plasmin light chain B
modifications: plasmin 3,3-dimethylacryloyl acylated active site
B10: N-methyl-p-guanidinobenzoyl: human plasmin, active site serine blocked by N-methyl-p-guanidinobenzoyl (protein, UniProt P00747 20-580; P00747 581-810, looked up)
Plasmin heavy chain A: B2 Plasmin heavy chain A
Plasmin light chain B: B2 Plasmin light chain B
modifications: plasmin N-methyl-p-guanidinobenzoyl acylated active site
B11: p-Anisoyl Human Plasmin (protein, UniProt P00747 20-580; P00747 581-810, looked up)
Plasmin heavy chain A: B2 Plasmin heavy chain A
Plasmin light chain B: B2 Plasmin light chain B
modifications: Plasmin active-site p-anisoyl acylated
notes: human plasmin acylated at the catalytic site with p-amidinophenyl p'anisate
B12: p-Fluorobenzoyl: porcine plasmin, active site serine blocked by p-fluorobenzoyl (protein, UniProt P06867 20-579; P06867 580-809, looked up)
Plasmin heavy chain A: B1 Plasmin heavy chain A
Plasmin light chain B: B1 Plasmin light chain B
modifications: plasmin p-fluorobenzoyl acylated active site
B13: p-Methyl-t-cinnamoyl: porcine plasmin, active site serine blocked by p-methyl-trans-cinnamoyl (protein, UniProt P06867 20-579; P06867 580-809, looked up)
Plasmin heavy chain A: B1 Plasmin heavy chain A
Plasmin light chain B: B1 Plasmin light chain B
modifications: plasmin p-methyl-trans-cinnamoyl acylated active site

Test system: Human Plasmin
Assay: Deacylation (hydrolysis) of active-site blocked human plasmin, pseudo-first order rate constant followed by regain of activity on chromogenic substrate S-2251
Assay type: biochemical
Settings: active site serine substituted human plasmin; pH 7.4, 37° C.
Description: (§1) The pseudo-first order rate constant is determined by hydrolysing the enzyme derivative under physiological conditions i.e. in isotonic aqueous media at pH 7.4 and at 37° C. At regular intervals aliquots are withdrawn and incubated with a chromogenic or fluorogenic protease substrate such as S-2251 (H-D-Val-Leu-Lys-p-nitroanilide 2HCl) and the rate of conversion of the substrate measured.
(§2) The hydrolysis is followed until such time as the rate of conversion of substrate reaches a maximum. The rate constant k is then calculated by plotting: […]
(§3) loge (1-^At /Amax) against t
(§4) where Amax the maximum rate at which an aliquot converts substrate and At is the rate at which an aliquot converts substrate at time t.

Row | Molecule | Deacylation rate, Human Plasmin K sec^-1 × 10^4 [sec^-1 × 10^4]
1 | B1 | 1.10
2 | B2 | 1.10
3 | B3 | 0.70
4 | B4 | 1.10
5 | B5 | 1.82
6 | B6 | 1.71
7 | B7 | 4.70
8 | B8 | 2.70
9 | B9 | 0.69
10 | B10 | 2.0

Same assay, conditions: conditions specified for deacylation (isotonic aqueous media, pH 7.4, 37° C.)

Row | Molecule | time for quantitative reactivation to free plasmin
11 | B11 | approximately two

Test system: Porcine Plasmin
Assay: Deacylation (hydrolysis) of active-site blocked porcine plasmin, pseudo-first order rate constant followed by regain of activity on chromogenic substrate
Assay type: biochemical
Settings: active site serine substituted porcine plasmin; pH 7.4, 37° C.
Description: as §1, §2, §3, §4

Row | Molecule | Deacylation rate, Porcine Plasmin K sec^-1 × 10^4 [sec^-1 × 10^4]
12 | B12 | 3.30
13 | B13 | 2.92
14 | B1 | 0.33

Test system: streptokinase-human plasminogen activator complex
Assay: Deacylation of acylated streptokinase-human plasminogen activator complex to free enzyme
Assay type: biochemical
Settings: acyl-activator complex solution; 37° C.
Description: as §1, §2, §3, §4

Row | Molecule | pseudo-first order (deacylation) rate constant of regeneration to free enzyme [s⁻¹]
15 | 3-Methyl p-Anisoyl Streptokinase-human Plasminogen Activator Complex [Example 23] | 0.0001
16 | p-Anisoyl Streptokinase-Human Plasminogen Activator Complex [Example 22] | 0.00027
